According to paper PMC4452343, “Monitoring β-arrestin recruitment via β-lactamase enzyme fragment complementation: purification of peptide E as a low-affinity ligand for mammalian bombesin receptors” (PLoS ONE, 2015):

How the values were obtained:
[1] = biological target: T1, human bombesin receptor subtype 3 (human, UniProt P32247 1-399); assay: cell-based or functional assay
T1 sequence (looked up): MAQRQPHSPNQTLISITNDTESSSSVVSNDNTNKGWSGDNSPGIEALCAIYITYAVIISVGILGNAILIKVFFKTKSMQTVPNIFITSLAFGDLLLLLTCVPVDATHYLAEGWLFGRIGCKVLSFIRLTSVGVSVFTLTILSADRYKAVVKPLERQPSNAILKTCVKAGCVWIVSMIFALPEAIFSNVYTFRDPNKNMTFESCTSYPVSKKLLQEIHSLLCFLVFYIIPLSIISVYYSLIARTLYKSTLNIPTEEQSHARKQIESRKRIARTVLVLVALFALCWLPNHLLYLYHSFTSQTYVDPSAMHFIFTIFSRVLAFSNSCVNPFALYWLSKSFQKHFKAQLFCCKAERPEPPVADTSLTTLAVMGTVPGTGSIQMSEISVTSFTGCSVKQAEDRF

[2] = biological target: gastrin-releasing peptide receptor (human, UniProt P30550 1-384); assay: cell-based or functional assay
Chain of gastrin-releasing peptide receptor (P30550 whole entry): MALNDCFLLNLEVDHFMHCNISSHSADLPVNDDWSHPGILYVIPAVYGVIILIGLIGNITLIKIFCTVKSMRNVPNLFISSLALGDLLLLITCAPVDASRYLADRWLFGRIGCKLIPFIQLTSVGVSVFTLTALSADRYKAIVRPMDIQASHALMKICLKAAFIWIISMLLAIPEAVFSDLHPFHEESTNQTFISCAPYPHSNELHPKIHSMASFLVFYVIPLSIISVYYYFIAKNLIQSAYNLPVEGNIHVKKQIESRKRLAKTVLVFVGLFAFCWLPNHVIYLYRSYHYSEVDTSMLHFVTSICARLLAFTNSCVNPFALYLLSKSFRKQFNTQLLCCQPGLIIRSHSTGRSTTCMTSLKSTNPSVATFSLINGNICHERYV

neuromedin B receptor = neuromedin B receptor (human, UniProt P28336 1-390); assay: cell-based or functional assay
Chain of neuromedin B receptor (P28336 whole entry): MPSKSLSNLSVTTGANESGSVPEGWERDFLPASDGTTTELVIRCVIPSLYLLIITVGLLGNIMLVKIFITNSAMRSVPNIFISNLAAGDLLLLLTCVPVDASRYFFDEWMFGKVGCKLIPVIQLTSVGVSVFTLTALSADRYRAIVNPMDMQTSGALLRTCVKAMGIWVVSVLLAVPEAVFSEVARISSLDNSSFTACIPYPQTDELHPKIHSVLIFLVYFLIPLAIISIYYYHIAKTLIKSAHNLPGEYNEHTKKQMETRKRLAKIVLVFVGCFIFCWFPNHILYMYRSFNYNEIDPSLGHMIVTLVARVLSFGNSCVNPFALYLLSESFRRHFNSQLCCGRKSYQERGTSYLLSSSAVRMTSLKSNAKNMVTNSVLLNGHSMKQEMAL

[3] = biological target: T1, human bombesin receptor subtype 3; assay: radioligand binding; competition; 5 μg membrane fraction of CHO-hBRS3 cells with 0.1 nM radioligand and various concentrations of competitor, 2 h at room temperature, 50mM Tris-HCl (pH7.5), 5mM MgCl2; bound ligand separated on a GF/C filter; details: one partner purified

B1: peptide E (peptide)
chain: YGGFMRRVGRPEWWMDYQKRYGGFL
notes: peptide E, a partially processed product of the opioid peptide precursor proenkephalin A; 25 residues; also called P2; synthetic peptide E; source: synthetic peptide (chemically synthesized)
- EC50 of NFAT-luciferase reporter activation in CHO cells expressing hBRS3 [1]: 500 nM
- EC50 of NFAT-luciferase reporter activation in CHO cells expressing hGRPR [2]: 3500 nM
- EC50 of NFAT-luciferase reporter activation in CHO cells expressing hNMBR (neuromedin B receptor): 1100 nM
- IC50 [3]: 361 nM
